Numbered stars: 1 amine (or outer) side, 2 acyl side, 3 side chain; on linkers, the order of the positions; unused ones are H or OH. Square brackets hold non-standard residues; d marks the D form. Side chains are listed from the residue outwards. Ends that are not written are not given here. * marks the point of attachment. C20 diacid = O=C(O)CCCCCCCCCCCCCCCCCCC(=O)*; γGlu = O=C(O)[C@H](CCC(=O)[*:2])N[*:1]; AEEA = NCCOCCOCC(=O)O; Aib = CC(C)(N)C(=O)O
T1: human GIP receptor (human, UniProt P48546 22-466)
T1 construct: whole, on cells; Used as crude membranes of stably transfected CHO cells; also called hGIPR
T1 sequence (looked up): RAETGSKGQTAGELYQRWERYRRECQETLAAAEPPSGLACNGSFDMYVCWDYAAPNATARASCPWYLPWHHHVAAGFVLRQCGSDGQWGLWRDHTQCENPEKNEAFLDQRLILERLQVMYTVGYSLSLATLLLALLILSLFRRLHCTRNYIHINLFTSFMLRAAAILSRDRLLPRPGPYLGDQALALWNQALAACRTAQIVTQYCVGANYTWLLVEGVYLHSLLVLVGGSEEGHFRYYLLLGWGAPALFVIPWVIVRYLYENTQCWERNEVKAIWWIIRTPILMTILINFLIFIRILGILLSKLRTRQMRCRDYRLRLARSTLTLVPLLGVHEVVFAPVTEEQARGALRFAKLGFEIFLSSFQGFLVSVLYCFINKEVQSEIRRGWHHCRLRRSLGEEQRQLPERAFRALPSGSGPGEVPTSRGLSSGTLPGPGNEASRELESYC


Columns and labels:
human GIP receptor = biological target: T1, human GIP receptor; assay: SPA, [125I]-GIP displacement, hGIPR membranes
human glucagon receptor = biological target: T2, human glucagon receptor (human, UniProt P47871 26-477); assay: SPA, [125I]-Gcg displacement, hGcgR membranes
T2 construct: whole, on cells; Used as crude membranes of stably transfected HEK293 cells; also called hGcgR; hGLcgR
T2 sequence (P47871 26-477): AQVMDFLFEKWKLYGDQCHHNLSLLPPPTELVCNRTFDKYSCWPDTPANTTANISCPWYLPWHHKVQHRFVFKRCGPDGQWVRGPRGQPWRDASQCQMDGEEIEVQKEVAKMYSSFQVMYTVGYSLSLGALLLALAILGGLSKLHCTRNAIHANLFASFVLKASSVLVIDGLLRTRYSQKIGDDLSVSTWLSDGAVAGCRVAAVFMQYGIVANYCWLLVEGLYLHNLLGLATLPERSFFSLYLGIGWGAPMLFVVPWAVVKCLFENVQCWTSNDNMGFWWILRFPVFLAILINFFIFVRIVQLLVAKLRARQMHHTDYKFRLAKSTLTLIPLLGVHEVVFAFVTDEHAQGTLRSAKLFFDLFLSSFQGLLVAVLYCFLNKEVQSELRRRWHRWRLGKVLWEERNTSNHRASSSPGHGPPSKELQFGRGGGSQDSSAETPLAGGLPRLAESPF

human GLP-1 receptor = biological target: T3, human GLP-1 receptor (human, UniProt P43220 24-463); assay: SPA, [125I]-GLP-1 displacement, hGLP-1R membranes
T3 construct: whole, on cells; Used as crude membranes of stably transfected HEK293 cells; also called hGLP1R; hGLP-1R

Row | Binder | Ki (human GIP receptor) [nM] | Ki (human glucagon receptor) [nM] | Ki (human GLP-1 receptor) [nM]
1 | Y[Aib]EGTFTSDYSILLDKIAQ[Aib]AFIEYLIEGGPSSK([AEEA-AEEA-γGlu-C20 diacid])APPPS-NH2 (N-terminus assumed; SMILES CC[C@H](C)[C@H](NC(=O)[C@H](CCCCN)NC(=O)[C@H](CC(=O)O)NC(=O)[C@H](CC(C)C)NC(=O)[C@H](CC(C)C)NC(=O)[C@@H](NC(=O)[C@H](CO)NC(=O)[C@H](Cc1ccc(O)cc1)NC(=O)[C@H](CC(=O)O)NC(=O)[C@H](CO)NC(=O)[C@@H](NC(=O)[C@H](Cc1ccccc1)NC(=O)[C@@H](NC(=O)CNC(=O)[C@H](CCC(=O)O)NC(=O)C(C)(C)NC(=O)[C@@H](N)Cc1ccc(O)cc1)[C@@H](C)O)[C@@H](C)O)[C@@H](C)CC)C(=O)N[C@@H](C)C(=O)N[C@@H](CCC(N)=O)C(=O)NC(C)(C)C(=O)N[C@@H](C)C(=O)N[C@@H](Cc1ccccc1)C(=O)N[C@H](C(=O)N[C@@H](CCC(=O)O)C(=O)N[C@@H](Cc1ccc(O)cc1)C(=O)N[C@@H](CC(C)C)C(=O)N[C@H](C(=O)N[C@@H](CCC(=O)O)C(=O)NCC(=O)NCC(=O)N1CCC[C@H]1C(=O)N[C@@H](CO)C(=O)N[C@@H](CO)C(=O)N[C@@H](CCCCNC(=O)COCCOCCNC(=O)COCCOCCNC(=O)CC[C@H](NC(=O)CCCCCCCCCCCCCCCCCCC(=O)O)C(=O)O)C(=O)N[C@@H](C)C(=O)N1CCC[C@H]1C(=O)N1CCC[C@H]1C(=O)N1CCC[C@H]1C(=O)N[C@@H](CO)C(N)=O)[C@@H](C)CC)[C@@H](C)CC) [Example 43] | 0.101 | 134 | 11.8
2 | Y[Aib]EGTFTSDYSILLDKIAQ[Aib]AFIEYLIEGGPSSGAPPPK([AEEA-AEEA-γGlu-C20 diacid])-NH2 (N-terminus assumed; SMILES CC[C@H](C)[C@H](NC(=O)[C@H](CCCCN)NC(=O)[C@H](CC(=O)O)NC(=O)[C@H](CC(C)C)NC(=O)[C@H](CC(C)C)NC(=O)[C@@H](NC(=O)[C@H](CO)NC(=O)[C@H](Cc1ccc(O)cc1)NC(=O)[C@H](CC(=O)O)NC(=O)[C@H](CO)NC(=O)[C@@H](NC(=O)[C@H](Cc1ccccc1)NC(=O)[C@@H](NC(=O)CNC(=O)[C@H](CCC(=O)O)NC(=O)C(C)(C)NC(=O)[C@@H](N)Cc1ccc(O)cc1)[C@@H](C)O)[C@@H](C)O)[C@@H](C)CC)C(=O)N[C@@H](C)C(=O)N[C@@H](CCC(N)=O)C(=O)NC(C)(C)C(=O)N[C@@H](C)C(=O)N[C@@H](Cc1ccccc1)C(=O)N[C@H](C(=O)N[C@@H](CCC(=O)O)C(=O)N[C@@H](Cc1ccc(O)cc1)C(=O)N[C@@H](CC(C)C)C(=O)N[C@H](C(=O)N[C@@H](CCC(=O)O)C(=O)NCC(=O)NCC(=O)N1CCC[C@H]1C(=O)N[C@@H](CO)C(=O)N[C@@H](CO)C(=O)NCC(=O)N[C@@H](C)C(=O)N1CCC[C@H]1C(=O)N1CCC[C@H]1C(=O)N1CCC[C@H]1C(=O)N[C@@H](CCCCNC(=O)COCCOCCNC(=O)COCCOCCNC(=O)CC[C@H](NC(=O)CCCCCCCCCCCCCCCCCCC(=O)O)C(=O)O)C(N)=O)[C@@H](C)CC)[C@@H](C)CC) [Example 48] | 0.074 | 111 | 15.7
3 | Y[Aib]EGTFTSDYSILLDKIAQ[Aib]AFIEYLIEGGPSSGK([AEEA-AEEA-γGlu-C20 diacid])PPPS-NH2 (N-terminus assumed; SMILES CC[C@H](C)[C@H](NC(=O)[C@H](CCCCN)NC(=O)[C@H](CC(=O)O)NC(=O)[C@H](CC(C)C)NC(=O)[C@H](CC(C)C)NC(=O)[C@@H](NC(=O)[C@H](CO)NC(=O)[C@H](Cc1ccc(O)cc1)NC(=O)[C@H](CC(=O)O)NC(=O)[C@H](CO)NC(=O)[C@@H](NC(=O)[C@H](Cc1ccccc1)NC(=O)[C@@H](NC(=O)CNC(=O)[C@H](CCC(=O)O)NC(=O)C(C)(C)NC(=O)[C@@H](N)Cc1ccc(O)cc1)[C@@H](C)O)[C@@H](C)O)[C@@H](C)CC)C(=O)N[C@@H](C)C(=O)N[C@@H](CCC(N)=O)C(=O)NC(C)(C)C(=O)N[C@@H](C)C(=O)N[C@@H](Cc1ccccc1)C(=O)N[C@H](C(=O)N[C@@H](CCC(=O)O)C(=O)N[C@@H](Cc1ccc(O)cc1)C(=O)N[C@@H](CC(C)C)C(=O)N[C@H](C(=O)N[C@@H](CCC(=O)O)C(=O)NCC(=O)NCC(=O)N1CCC[C@H]1C(=O)N[C@@H](CO)C(=O)N[C@@H](CO)C(=O)NCC(=O)N[C@@H](CCCCNC(=O)COCCOCCNC(=O)COCCOCCNC(=O)CC[C@H](NC(=O)CCCCCCCCCCCCCCCCCCC(=O)O)C(=O)O)C(=O)N1CCC[C@H]1C(=O)N1CCC[C@H]1C(=O)N1CCC[C@H]1C(=O)N[C@@H](CO)C(N)=O)[C@@H](C)CC)[C@@H](C)CC) [Example 44] | 0.0516 | 121 | 10.6
4 | Y[Aib]EGTFTSDYSSLLDKK([AEEA-AEEA-γGlu-C20 diacid])AQ[Aib]AFIEYLIEGGPSSGAPPPS-NH2 (N-terminus assumed; SMILES CC[C@H](C)[C@H](NC(=O)[C@H](CC(C)C)NC(=O)[C@H](Cc1ccc(O)cc1)NC(=O)[C@H](CCC(=O)O)NC(=O)[C@@H](NC(=O)[C@H](Cc1ccccc1)NC(=O)[C@H](C)NC(=O)C(C)(C)NC(=O)[C@H](CCC(N)=O)NC(=O)[C@H](C)NC(=O)[C@H](CCCCNC(=O)COCCOCCNC(=O)COCCOCCNC(=O)CC[C@H](NC(=O)CCCCCCCCCCCCCCCCCCC(=O)O)C(=O)O)NC(=O)[C@H](CCCCN)NC(=O)[C@H](CC(=O)O)NC(=O)[C@H](CC(C)C)NC(=O)[C@H](CC(C)C)NC(=O)[C@H](CO)NC(=O)[C@H](CO)NC(=O)[C@H](Cc1ccc(O)cc1)NC(=O)[C@H](CC(=O)O)NC(=O)[C@H](CO)NC(=O)[C@@H](NC(=O)[C@H](Cc1ccccc1)NC(=O)[C@@H](NC(=O)CNC(=O)[C@H](CCC(=O)O)NC(=O)C(C)(C)NC(=O)[C@@H](N)Cc1ccc(O)cc1)[C@@H](C)O)[C@@H](C)O)[C@@H](C)CC)C(=O)N[C@@H](CCC(=O)O)C(=O)NCC(=O)NCC(=O)N1CCC[C@H]1C(=O)N[C@@H](CO)C(=O)N[C@@H](CO)C(=O)NCC(=O)N[C@@H](C)C(=O)N1CCC[C@H]1C(=O)N1CCC[C@H]1C(=O)N1CCC[C@H]1C(=O)N[C@@H](CO)C(N)=O) [Example 58] | 0.105 | 339 | 2.77
5 | Y[Aib]EGTFTSDYSILLDKIAQ[Aib]AFIEYLIEGGPSSGAK([AEEA-AEEA-γGlu-C20 diacid])PPS-NH2 (N-terminus assumed; SMILES CC[C@H](C)[C@H](NC(=O)[C@H](CCCCN)NC(=O)[C@H](CC(=O)O)NC(=O)[C@H](CC(C)C)NC(=O)[C@H](CC(C)C)NC(=O)[C@@H](NC(=O)[C@H](CO)NC(=O)[C@H](Cc1ccc(O)cc1)NC(=O)[C@H](CC(=O)O)NC(=O)[C@H](CO)NC(=O)[C@@H](NC(=O)[C@H](Cc1ccccc1)NC(=O)[C@@H](NC(=O)CNC(=O)[C@H](CCC(=O)O)NC(=O)C(C)(C)NC(=O)[C@@H](N)Cc1ccc(O)cc1)[C@@H](C)O)[C@@H](C)O)[C@@H](C)CC)C(=O)N[C@@H](C)C(=O)N[C@@H](CCC(N)=O)C(=O)NC(C)(C)C(=O)N[C@@H](C)C(=O)N[C@@H](Cc1ccccc1)C(=O)N[C@H](C(=O)N[C@@H](CCC(=O)O)C(=O)N[C@@H](Cc1ccc(O)cc1)C(=O)N[C@@H](CC(C)C)C(=O)N[C@H](C(=O)N[C@@H](CCC(=O)O)C(=O)NCC(=O)NCC(=O)N1CCC[C@H]1C(=O)N[C@@H](CO)C(=O)N[C@@H](CO)C(=O)NCC(=O)N[C@@H](C)C(=O)N[C@@H](CCCCNC(=O)COCCOCCNC(=O)COCCOCCNC(=O)CC[C@H](NC(=O)CCCCCCCCCCCCCCCCCCC(=O)O)C(=O)O)C(=O)N1CCC[C@H]1C(=O)N1CCC[C@H]1C(=O)N[C@@H](CO)C(N)=O)[C@@H](C)CC)[C@@H](C)CC) [Example 45] | 0.0463 | 11.1 | 5.65
6 | Y[Aib]EGTFTSDYSILLDKIAQ[Aib]AFIEYLIEGGPSSGAPK([AEEA-AEEA-γGlu-C20 diacid])PS-NH2 (N-terminus assumed; SMILES CC[C@H](C)[C@H](NC(=O)[C@H](CCCCN)NC(=O)[C@H](CC(=O)O)NC(=O)[C@H](CC(C)C)NC(=O)[C@H](CC(C)C)NC(=O)[C@@H](NC(=O)[C@H](CO)NC(=O)[C@H](Cc1ccc(O)cc1)NC(=O)[C@H](CC(=O)O)NC(=O)[C@H](CO)NC(=O)[C@@H](NC(=O)[C@H](Cc1ccccc1)NC(=O)[C@@H](NC(=O)CNC(=O)[C@H](CCC(=O)O)NC(=O)C(C)(C)NC(=O)[C@@H](N)Cc1ccc(O)cc1)[C@@H](C)O)[C@@H](C)O)[C@@H](C)CC)C(=O)N[C@@H](C)C(=O)N[C@@H](CCC(N)=O)C(=O)NC(C)(C)C(=O)N[C@@H](C)C(=O)N[C@@H](Cc1ccccc1)C(=O)N[C@H](C(=O)N[C@@H](CCC(=O)O)C(=O)N[C@@H](Cc1ccc(O)cc1)C(=O)N[C@@H](CC(C)C)C(=O)N[C@H](C(=O)N[C@@H](CCC(=O)O)C(=O)NCC(=O)NCC(=O)N1CCC[C@H]1C(=O)N[C@@H](CO)C(=O)N[C@@H](CO)C(=O)NCC(=O)N[C@@H](C)C(=O)N1CCC[C@H]1C(=O)N[C@@H](CCCCNC(=O)COCCOCCNC(=O)COCCOCCNC(=O)CC[C@H](NC(=O)CCCCCCCCCCCCCCCCCCC(=O)O)C(=O)O)C(=O)N1CCC[C@H]1C(=O)N[C@@H](CO)C(N)=O)[C@@H](C)CC)[C@@H](C)CC) [Example 46] | 0.0852 | 133 | 13.4
